T1: HCoV-229E spike antigens (bead panel) (HCoV-229E, UniProt P15423 16-1115)
T1 sequence: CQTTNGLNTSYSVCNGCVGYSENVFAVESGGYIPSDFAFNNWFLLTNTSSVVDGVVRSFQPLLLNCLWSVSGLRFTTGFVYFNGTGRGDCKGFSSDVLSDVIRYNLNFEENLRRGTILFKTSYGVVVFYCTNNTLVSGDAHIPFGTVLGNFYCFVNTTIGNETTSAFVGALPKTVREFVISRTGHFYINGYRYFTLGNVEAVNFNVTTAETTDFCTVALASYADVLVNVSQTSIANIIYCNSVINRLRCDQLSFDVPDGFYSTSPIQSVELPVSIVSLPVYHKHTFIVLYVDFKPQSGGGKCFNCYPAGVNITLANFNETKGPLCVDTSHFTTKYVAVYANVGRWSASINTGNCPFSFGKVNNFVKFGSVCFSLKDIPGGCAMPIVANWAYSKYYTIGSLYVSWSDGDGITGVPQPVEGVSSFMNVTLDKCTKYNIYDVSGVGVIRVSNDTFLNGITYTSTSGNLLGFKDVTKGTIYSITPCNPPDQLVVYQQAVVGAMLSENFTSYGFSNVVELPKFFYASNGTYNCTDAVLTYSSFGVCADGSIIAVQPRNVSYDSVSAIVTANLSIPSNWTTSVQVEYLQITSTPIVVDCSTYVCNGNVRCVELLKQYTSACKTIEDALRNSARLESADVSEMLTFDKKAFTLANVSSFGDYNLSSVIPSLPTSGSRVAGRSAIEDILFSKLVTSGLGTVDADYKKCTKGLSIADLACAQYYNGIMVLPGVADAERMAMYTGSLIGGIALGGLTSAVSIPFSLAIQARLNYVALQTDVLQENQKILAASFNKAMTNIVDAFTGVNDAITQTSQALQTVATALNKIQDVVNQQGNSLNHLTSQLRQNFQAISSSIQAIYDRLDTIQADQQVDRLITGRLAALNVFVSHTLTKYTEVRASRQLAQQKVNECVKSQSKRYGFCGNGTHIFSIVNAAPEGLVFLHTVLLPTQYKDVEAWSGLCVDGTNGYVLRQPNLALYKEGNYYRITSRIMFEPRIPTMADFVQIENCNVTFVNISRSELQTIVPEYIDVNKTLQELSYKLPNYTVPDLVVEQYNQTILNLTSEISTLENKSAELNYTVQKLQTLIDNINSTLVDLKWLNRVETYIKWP

T2: HCoV-HKU1 spike antigens (bead panel) (HCoV-HKU1, UniProt Q5MQD0 13-1300)
T2 sequence: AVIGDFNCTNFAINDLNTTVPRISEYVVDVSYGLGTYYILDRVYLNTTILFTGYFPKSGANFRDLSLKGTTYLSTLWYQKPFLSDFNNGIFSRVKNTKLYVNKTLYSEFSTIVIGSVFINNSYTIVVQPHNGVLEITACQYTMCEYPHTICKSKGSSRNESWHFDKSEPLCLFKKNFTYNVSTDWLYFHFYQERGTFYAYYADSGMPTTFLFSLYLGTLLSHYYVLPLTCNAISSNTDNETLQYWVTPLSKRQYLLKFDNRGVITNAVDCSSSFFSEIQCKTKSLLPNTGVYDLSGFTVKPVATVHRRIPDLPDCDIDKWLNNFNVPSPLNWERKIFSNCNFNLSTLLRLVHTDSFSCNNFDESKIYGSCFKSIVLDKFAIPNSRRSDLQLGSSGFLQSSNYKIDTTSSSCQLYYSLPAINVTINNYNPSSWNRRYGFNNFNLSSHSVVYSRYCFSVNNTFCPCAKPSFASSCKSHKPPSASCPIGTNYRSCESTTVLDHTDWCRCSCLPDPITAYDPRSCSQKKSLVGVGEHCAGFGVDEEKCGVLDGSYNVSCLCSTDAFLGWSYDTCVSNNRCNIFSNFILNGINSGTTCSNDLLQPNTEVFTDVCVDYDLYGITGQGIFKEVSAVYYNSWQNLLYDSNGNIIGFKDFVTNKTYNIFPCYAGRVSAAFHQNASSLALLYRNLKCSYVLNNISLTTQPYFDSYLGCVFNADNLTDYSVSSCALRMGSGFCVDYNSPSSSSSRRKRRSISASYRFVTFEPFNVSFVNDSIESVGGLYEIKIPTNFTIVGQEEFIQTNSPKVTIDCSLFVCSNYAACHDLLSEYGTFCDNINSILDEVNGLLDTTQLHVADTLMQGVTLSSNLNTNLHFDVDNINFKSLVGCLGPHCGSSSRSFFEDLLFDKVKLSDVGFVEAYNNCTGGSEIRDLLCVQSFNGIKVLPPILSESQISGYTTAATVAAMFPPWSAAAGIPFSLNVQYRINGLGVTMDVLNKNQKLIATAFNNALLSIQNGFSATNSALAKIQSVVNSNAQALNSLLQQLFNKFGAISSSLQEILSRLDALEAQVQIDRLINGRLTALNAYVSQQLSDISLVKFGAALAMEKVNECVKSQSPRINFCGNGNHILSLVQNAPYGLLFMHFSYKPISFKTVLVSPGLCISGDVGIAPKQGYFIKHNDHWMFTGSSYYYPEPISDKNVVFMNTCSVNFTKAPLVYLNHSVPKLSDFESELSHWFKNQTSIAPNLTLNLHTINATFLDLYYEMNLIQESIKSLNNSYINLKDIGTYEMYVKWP

T3: MERS-CoV spike antigens (bead panel) (MERS-CoV, UniProt K9N5Q8 18-1296)
T3 sequence: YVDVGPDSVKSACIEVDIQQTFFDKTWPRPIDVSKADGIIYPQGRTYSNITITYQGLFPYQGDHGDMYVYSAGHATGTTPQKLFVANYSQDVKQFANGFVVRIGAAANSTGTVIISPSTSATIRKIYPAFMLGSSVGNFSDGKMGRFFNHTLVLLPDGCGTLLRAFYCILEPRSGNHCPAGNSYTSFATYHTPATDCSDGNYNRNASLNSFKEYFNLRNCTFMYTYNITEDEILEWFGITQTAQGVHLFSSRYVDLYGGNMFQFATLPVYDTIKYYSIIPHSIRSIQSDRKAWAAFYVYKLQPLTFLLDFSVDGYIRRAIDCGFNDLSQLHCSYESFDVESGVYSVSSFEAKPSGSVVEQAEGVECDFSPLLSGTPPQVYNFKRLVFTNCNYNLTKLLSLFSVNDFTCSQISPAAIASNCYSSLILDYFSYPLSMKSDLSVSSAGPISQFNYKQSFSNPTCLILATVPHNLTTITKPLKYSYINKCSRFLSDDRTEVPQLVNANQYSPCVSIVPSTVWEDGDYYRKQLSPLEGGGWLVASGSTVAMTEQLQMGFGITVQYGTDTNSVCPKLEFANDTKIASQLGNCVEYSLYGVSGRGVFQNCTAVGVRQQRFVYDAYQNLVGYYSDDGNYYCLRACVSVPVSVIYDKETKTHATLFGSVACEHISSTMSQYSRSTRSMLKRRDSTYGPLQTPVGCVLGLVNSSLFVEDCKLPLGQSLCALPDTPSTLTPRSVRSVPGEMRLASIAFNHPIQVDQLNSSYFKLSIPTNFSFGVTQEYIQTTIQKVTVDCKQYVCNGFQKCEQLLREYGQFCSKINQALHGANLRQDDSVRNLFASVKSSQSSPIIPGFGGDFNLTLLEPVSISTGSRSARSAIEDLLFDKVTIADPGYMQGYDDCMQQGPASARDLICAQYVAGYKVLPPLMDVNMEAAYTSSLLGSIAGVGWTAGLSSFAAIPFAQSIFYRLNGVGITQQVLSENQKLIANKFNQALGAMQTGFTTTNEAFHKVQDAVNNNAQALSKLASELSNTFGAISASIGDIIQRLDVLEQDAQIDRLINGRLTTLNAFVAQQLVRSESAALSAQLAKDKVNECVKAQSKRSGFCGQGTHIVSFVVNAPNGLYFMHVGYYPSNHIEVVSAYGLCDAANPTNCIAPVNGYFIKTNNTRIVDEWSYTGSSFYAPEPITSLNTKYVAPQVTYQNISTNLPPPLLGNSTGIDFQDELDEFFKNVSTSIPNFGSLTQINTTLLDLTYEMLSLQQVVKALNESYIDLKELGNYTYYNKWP

B1: COV_1063 (antibody, V domains shown)
VH: EEKLVESGGDLVQPGGSLRISCEVSGFSLSKYWMNWVRQAPGKGLQWVANIEEDGSERNYADSVKGRFTISRDNARNSLYLQMNSLRVEDTAVYLCTAGHYAGPWGWGQGTLVTVSS
VL: DIQMTQSPSSLSASVGDRVTVTCRASQDIGHYLAWYQQKPGKTPNLLIYDAFNLESGVPPRFGGSGSGTDFTLTISSLQPEDAATYYCQKYDSVPWTFGQGTKVEIKR
notes: human IgG1
B2: COV_1116 (antibody, V domains shown)
VH: EVQLVESGGGLVKPGGSLRLSCAASGFTFSSYSMNWVRQAPGKGLEWVSSISSSNAYIYSADSVKGRFTISRDNAKNSLYLQMNSLRADDTAVYYCARGGRGLSSSPGRLDYYYGLDVWGQGTTVTVSS
VL: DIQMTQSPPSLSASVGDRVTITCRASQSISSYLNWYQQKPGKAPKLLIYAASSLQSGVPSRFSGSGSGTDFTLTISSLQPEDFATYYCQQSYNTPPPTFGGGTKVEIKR
notes: human IgG1
B3: COV_1131 (antibody, V domains shown)
VH: QVQLQESGPGLVKPSETLSLTCSVSGGSISSYYWSWIRQPPGKGLEWIGYISYSGSTNYNPSLKSRVTISVDTSKNQFSLKLSSVTAADTAVYYCARLGFGGIYPSLYDAFDIWGQGTMVTVSS
VL: DIQMTQSPSSLSASVGDRVTITCRASQTISSYLNWYQQKPGKAPNLLIYDASSLQRGVPSRFSGSGSGTDFTLTISSLQPEDFATYYCQQSYSTPRTFGQGTKVEIKR
notes: human IgG1
B4: COV_2064 (antibody, V domains shown)
VH: EVQLVESGGGLVQPGGSLRLSCTASGFTFNNNWMHWVRQVPGKGLVWVSRINTDESSTSYADSVKGRFIISRDNAKNTLYLQMNSLRVEDTAVYYCARSTAQYDIWTGYYYYMDVWGKGTTVTVSS
VL: DIQMTQSPSTLSASVGDRVTISCRASQSISTWLAWYQQKPGKAPNLLIYGASNLGSGVPSRFSGGGSGTEFTLTISSLQSDDFATYYCQRYNSFPYTFGQGTKLEIKR
notes: human IgG1
B5: COV_1032 (antibody, V domains shown)
VH: QVHLQESGPGLVKPSETLSLTCTVSGGSISSYYWSWIRQPPGKGLEWIGYIYDSGSTNYNPSLKSRVTISVDTSKNQFSLKLSSVTAADTAVYYCARSVRGVTIDYWGQGTLVTVSS
VL: DIQMTQSPSSLSASVGDRVTITCRASQSISNSISSYLNWYQKKPGKAPKLLIYAASSLQSGVPSRFSGSGSGTDFTLTISSLQPEDFATYYCQQSYSTPTTFGQGTKVEIKR
notes: human IgG1

The binders below were run against SARS-CoV-2 S on pseudovirions (Wuhan Hu-1 / IL1/2020, last 18 amino acids removed) (SARS-CoV-2, UniProt P0DTC2 14-1273) (assay: cell-based or functional assay).
With B1 the “Mean IC50, pSV neutralization” value was at least 25 µg/ml and the “Mean IC80, pSV neutralization” value was at least 25 µg/ml. In the case of B2, the “Mean IC50, pSV neutralization” value is reported as 6.99 µg/ml and the “Mean IC80, pSV neutralization” value is reported as at least 25 µg/ml. In the case of B3, the “Mean IC50, pSV neutralization” value is reported as at least 25 µg/ml and the “Mean IC80, pSV neutralization” value is reported as at least 25 µg/ml. With B4 the “Mean IC50, pSV neutralization” value was at least 25 µg/ml and the “Mean IC80, pSV neutralization” value was at least 25 µg/ml. With B5 the “Mean IC50, pSV neutralization” value was 2.5 µg/ml and the “Mean IC80, pSV neutralization” value was at least 25 µg/ml.

These binders were tested against T1, HCoV-229E spike antigens (bead panel) (assay: multiplex bead assay).
B2: no binding. B3: no binding. B4: no binding. B5: no binding.

Each binder was assayed against SARS-CoV-1 spike antigens (bead panel) (SARS-CoV-1, UniProt P59594 14-1195) (assay: multiplex bead assay).
B1: no binding.

These binders were tested against T2, HCoV-HKU1 spike antigens (bead panel) (assay: multiplex bead assay).
B2: no binding. B3: no binding. B4: no binding.

These binders were tested against T3, MERS-CoV spike antigens (bead panel) (assay: multiplex bead assay).
B2: no binding. B3: no binding. B4: no binding. B5: no binding.

Source: patent publication US20240101645A1 (HENRY M JACKSON FOUNDATION FOR THE ADVANCEMENT OF MILITARY …, published 2024)
